Data reported in patent publication US20210379129A1 (BIOCOMO INCORPORATION, published 2021).

Legend:
[1] = target: T1, mouse OX40L incorporated into the envelope of BC-PIV particles (mouse, UniProt P43488 1-198, Membrane-anchored type II protein on the BC-PIV envelope, expected as a homotrimer; one protomer is given.); assay: ELISA: 1x10^6 BC-PIV particles coated per well, receptor-Fc added at 1, 10, 50, 100 ng, HRP-Protein A, absorbance at 450 nm
T1 construct: Whole membrane protein on virus particles coated on the ELISA plate (1x10^6 particles per well); The form 'whole, on cells' is the nearest choice; the carrier is a virus envelope; also called mouse OX40L-carrying BC-PIV; BC-PIV/OX40L
T1 sequence: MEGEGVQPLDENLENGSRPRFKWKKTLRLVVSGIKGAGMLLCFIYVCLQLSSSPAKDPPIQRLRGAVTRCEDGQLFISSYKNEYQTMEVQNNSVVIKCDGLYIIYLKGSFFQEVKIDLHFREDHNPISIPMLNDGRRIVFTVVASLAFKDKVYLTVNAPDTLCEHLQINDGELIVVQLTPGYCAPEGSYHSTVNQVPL

[2] = target: T2, human OX40 receptor (BioLegend Inc, Cat #780804) (human, UniProt P43489 29-214); assay: ELISA: 1x10^6 BC-PIV particles coated per well, receptor added at 1, 10, 50, 100 ng, HRP-Protein A, absorbance at 450 nm
T2 construct: Bought reagent; No Fc tag is stated for this one, but detection was by HRP-Protein A 'adsorbed on the human Fc region', so a human Fc tag is likely; also called human OX40 receptor protein
T2 sequence: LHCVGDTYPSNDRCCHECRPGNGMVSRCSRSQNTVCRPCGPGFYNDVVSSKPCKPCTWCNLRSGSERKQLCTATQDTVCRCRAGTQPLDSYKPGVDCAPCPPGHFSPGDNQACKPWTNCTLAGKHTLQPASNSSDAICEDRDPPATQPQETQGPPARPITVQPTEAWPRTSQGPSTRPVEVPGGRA

[3] = target: T3, mouse 4-1BBL incorporated into the envelope of BC-PIV particles (mouse, UniProt P41274 1-309, Membrane-anchored type II protein on the BC-PIV envelope; paragraph 280 expects trimers that associate into higher multimers; one protomer is given.); assay: ELISA: 1x10^6 BC-PIV particles coated per well, receptor-Fc added at 1, 10, 50, 100 ng, HRP-Protein A, absorbance at 450 nm
T3 construct: Whole membrane protein on virus particles coated on the ELISA plate; also called mouse 4-1BBL-carrying BC-PIV; BC-PIV/4-1BBL
T3 sequence: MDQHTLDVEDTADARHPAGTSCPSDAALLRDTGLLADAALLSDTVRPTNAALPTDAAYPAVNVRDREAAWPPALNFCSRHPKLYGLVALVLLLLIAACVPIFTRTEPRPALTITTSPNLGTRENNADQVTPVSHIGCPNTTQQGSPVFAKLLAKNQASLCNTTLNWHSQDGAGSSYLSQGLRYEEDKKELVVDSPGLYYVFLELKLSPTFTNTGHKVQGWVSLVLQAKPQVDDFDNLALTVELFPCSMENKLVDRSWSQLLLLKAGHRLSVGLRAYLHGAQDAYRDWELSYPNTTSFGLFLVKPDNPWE

B1: trimeric mouse OX40 receptor (C-terminal human IgG Fc Tag; BioLegend Inc, Cat #78904) (Fc fusion)
chain: VTARRLNCVKHTYPSGHKCCRECQPGHGMVSRCDHTRDTLCHPCETGFYNEAVNYDTCKQCTQCNHRSGSELKQNCTPTQDTVCRCRPGTQPRQDSGYKLGVDCVPCPPGHFSPGNNQACKPWTNCTLSGKQTRHPASDSLDAVCEDRSLLATLLWETQRPTFRPTTVQSTTVWPRTSELPSPPTLVTPEGP
notes: Bought reagent, called 'trimeric'; not shown: C-terminal human IgG Fc tag
[1]
  binding result: binds

B2: human OX40L incorporated into the envelope of BC-PIV particles (ligand)
chain: MERVQPLEENVGNAARPRFERNKLLLVASVIQGLGLLLCFTYICLHFSALQVSHRYPRIQSIKVQFTEYKKEKGFILTSQKEDEIMKVQNNSVIINCDGFYLISLKGYFSQEVNISLHYQKDEEPLFQLKKVRSVNSLMVASLTYKDKVYLNVTTDNTSLDDFHVNGGELILIHQNPGEFCVL
modifications: Membrane-anchored type II protein on the BC-PIV envelope, expected as a homotrimer; one protomer is given.
notes: Whole membrane protein on virus particles coated on the ELISA plate; also called human OX40L-carrying BC-PIV
[2]
  binding result: binds

B3: mouse 4-1BB receptor (C-terminal human IgG Fc Tag; BioLegend Inc, Cat #756704) (Fc fusion)
chain: VQNSCDNCQPGTFCRKYNPVCKSCPPSTFSSIGGQPNCNICRVCAGYFRFKKFCSSTHNAECECIEGFHCLGPQCTRCEKDCRPGQELTKQGCKTCSLGTFNDQNGTGVCRPWTNCSLDGRSVLKTGTTEKDVVCGPPVVSFSPSTTISVTPEGGPGGHSLQVL
notes: Bought reagent; also called mouse 4-1BB receptor protein; not shown: C-terminal human IgG Fc tag
[3]
  binding result: binds
